Measurements published in publication PMC2903050 (Journal of molecular biology, 2010).

Tests used:
[1] = molecular target: T1, botulinum neurotoxin serotype A light chain residues 1-448 (Clostridium botulinum, BoNT/A1 …, UniProt P0DPI0); assay: flow cytometry on cells
[2] = molecular target: T1, botulinum neurotoxin serotype A light …; assay: KinExA
Target sequence in this assay (P0DPI0 1-448): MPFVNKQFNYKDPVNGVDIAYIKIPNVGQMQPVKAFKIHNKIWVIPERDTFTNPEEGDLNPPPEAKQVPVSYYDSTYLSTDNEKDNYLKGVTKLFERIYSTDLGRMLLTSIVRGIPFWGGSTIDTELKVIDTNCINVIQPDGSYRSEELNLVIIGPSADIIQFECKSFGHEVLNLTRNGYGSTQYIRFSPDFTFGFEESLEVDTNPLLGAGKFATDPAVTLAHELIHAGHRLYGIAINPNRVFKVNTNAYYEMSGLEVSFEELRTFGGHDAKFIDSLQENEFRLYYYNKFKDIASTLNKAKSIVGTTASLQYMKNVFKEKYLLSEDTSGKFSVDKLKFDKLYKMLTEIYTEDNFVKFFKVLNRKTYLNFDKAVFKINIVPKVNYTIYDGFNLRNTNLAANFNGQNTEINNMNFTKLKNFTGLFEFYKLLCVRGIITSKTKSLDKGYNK

[3] = molecular target: truncated BoNT/A Lc containing residues 1-425 (Clostridium botulinum, UniProt P0DPI0); assay: […]
Sequence of truncated BoNT/A Lc containing residues 1-425 (P0DPI0 1-425): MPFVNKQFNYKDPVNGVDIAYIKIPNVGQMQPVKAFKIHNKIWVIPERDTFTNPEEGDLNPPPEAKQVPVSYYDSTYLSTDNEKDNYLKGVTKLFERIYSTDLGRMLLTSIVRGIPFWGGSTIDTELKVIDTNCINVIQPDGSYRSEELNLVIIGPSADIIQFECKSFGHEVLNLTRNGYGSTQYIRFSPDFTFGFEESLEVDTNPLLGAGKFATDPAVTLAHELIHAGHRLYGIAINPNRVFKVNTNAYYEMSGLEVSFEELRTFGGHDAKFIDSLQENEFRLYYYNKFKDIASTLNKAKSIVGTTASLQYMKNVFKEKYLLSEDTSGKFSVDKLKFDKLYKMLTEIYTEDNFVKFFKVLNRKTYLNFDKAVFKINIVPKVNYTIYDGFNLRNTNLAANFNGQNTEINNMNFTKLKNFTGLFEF

B1: Aa1 VHH, yeast displayed (VHH)
VHH: AVQLVDSGGGTLQAGKSLRLSCAISGLAFDGGAMGSEHRLTAGAMGWFRQAPGKDREFVAAISPRTDETYYAESLEGRFSVSRDAAATMVFLQADNVRLDDTASYYCAADEDVTPRVMGVIPHADHWGQGTLVTVSS
- Kd [1]: 0.03 nM

B2: Aa1 VHH, purified (VHH)
VHH: B1 VHH
- Kd [2]: 0.147 nM
- koff [2]: 0.00666 s⁻¹
- kon [2]: 4.39e+07 M⁻¹ s⁻¹

B3: Aa1 VHH, for crystal growing (VHH)
VHH: B1 VHH
- stoichiometry N [3]: 1
